# Data reported in patent US7176277 (BURNHAM INSTITUTE, dated 2007).
# B1: Bcl-2/ΔLoop (other, UniProt P10415 1-239, looked up)
# chain: MAHAGRTGYDNREIVMKYIHYKLSQRGYEWDAAGPALSPVPPVVHLTLRQAGDDFSRRYRRDFAEMSSQLHLTPFTARGRFATVVEELFRDGVNWGRIVAFFEFGGVMCVESVNREMSPLVDNIALWMTEYLNRHLHTWIQDNGGWDAFVELYGPSMRPLFDFSWLSLKTLLSLALVGACITLGAYLGHK
# notes: also called Bcl-2 lacking the loop region
# B2: TR3/ΔDBD/ΔDC1 (other, not shown: large carriers; small tags and cut ends)
# chain: MPCIQAQYGTPAPSPGPRDHLASDPLTPEFIKPTMDLASPEAAPAAPTALPSFSTFMDGYTGEFDTFLYQLPGTVQPCSSASSSASSTSSSSATSPASASFKFEDFQVYGCYPGPLSGPVDEALSSSGSDYYGSPCSAPSPSTPSFQPPQLSPWDGSFGHFSPSQTYEHVAAVAGEPQPASCLSRLLGKLPELRTLCTQGLQRIFYLKLEDLVPPPPIIDKIFMDTLPF
# notes: also called TR3/ΔDBD/DC1; GFP fusion
# Experiments:
# [1] = target: T1, GFP-TR3/ΔDBD (human, UniProt P22736 1-598); experiment: Co-IP
# T1 construct: also called GFP-ΔDBD
# Protocol: (§1) The cells were harvested and reporter gene activity was measured. […] Cells were suspended in lysis buffer (50 mM Tris-HCl, PH7.4; 150 mM NaCl; 20 mM EDTA; 1% NP-40; 1 mM PMSF; 50 μg/ml Leupeptin; 20 mg/ml Aprotinin; 0.1 mM Na_3VO_4; and 1 mM DTT). Cells extracts were cleared by incubation with the Protein A/G plus Agarose beads (Santa Cruz) and then incubated with appropriate antibody and 30 μl of Protein A or G plus Agarose beads overnight at 4° C. […] Immunoreactive products were detected by chemiluminescence with an enhanced chemiluminescence system (ECL) (Amersham).
# [2] = target: T2, Bcl-2 (UniProt P10415 1-239); experiment: Co-IP (result restated in Example 8)
# T2 construct: The residue numbers used for the mutants (Tyr108, Leu137, Gly145, Arg146, TM 205-239) fit human Bcl-2 alpha; also called full-length Bcl-2; ^35S-labeled Bcl-2
# Protocol: as §1
# A Co-IP assay was performed, as described above.
binder,measurement,setting,value
B1,binding result,[1],no binding
B2,binding result,[2],no binding
